# Assay results reported in IntAct's records for PubMed 32493513.
# B1: Disrupted in schizophrenia 1 homolog (Mus musculus), Q811T9 (parent)
# chain: MQGGGPRGAPIHSPSHGADSGHGLPPAVAPQRRRLTRRPGYMRSTAGSGIGFLSPAVGMPHPSSAGLTGQQSQHSQSKAGQCGLDPGSHCQASLVGKPFLKSSLVPAVASEGHLHPAQRSMRKRPVHFAVHSKNDSRQSERLTGSFKPGDSGFWQELLSSDSFKSLAPSLDAPWNKGSRGLKTVKPLASPALNGPADIASLPGFQDTFTSSFSFIQLSLGAAGERGEAEGCLPSREAEPLHQRPQEMAAEASSSDRPHGDPRHLWTFSLHAAPGLADLAQVTRSSSRQSECGTVSSSSSDTGFSSQDASSAGGRGDQGGGWADAHGWHTLLREWEPMLQDYLLSNRRQLEVTSLILKLQKCQEKVVEDGDYDTAETLRQRLEELEQEKGRLSWALPSQQPALRSFLGYLAAQIQVALHGATQRAGSDDPEAPLEGQLRTTAQDSLPASITRRDWLIREKQRLQKEIEALQARMSALEAKEKRLSQELEEQEVLLRWPGCDLMALVAQMSPGQLQEVSKALGETLTSANQAPFQVEPPETLRSLRERTKSLNLAVRELTAQVCSGEKLCSSLRRRLSDLDTRLPALLEAKMLALSGSCFSTAKELTEEIWALSSEREGLEMFLGRLLALSSRNSRRLGIVKEDHLRCRQDLALQDAAHKTRMKANTVKCMEVLEGQLSSCRCPLLGRVWKADLETCQLLMQSLQLQEAGSSPHAEDEEQVHSTGEAAQTAALAVPRTPHPEEEKSPLQVLQEWDTHSALSPHCAAGPWKEDSHIVSAEVGEKCEAIGVKLLHLEDQLLGAMYSHDEALFQSLQGELQTVKETLQAMILQLQPTKEAGEASASYPTAGAQETEA
# B2: Disrupted in schizophrenia 1 protein (Homo sapiens), Q9NRI5 (parent)
# chain: MPGGGPQGAPAAAGGGGVSHRAGSRDCLPPAACFRRRRLARRPGYMRSSTGPGIGFLSPAVGTLFRFPGGVSGEESHHSESRARQCGLDSRGLLVRSPVSKSAAAPTVTSVRGTSAHFGIQLRGGTRLPDRLSWPCGPGSAGWQQEFAAMDSSETLDASWEAACSDGARRVRAAGSLPSAELSSNSCSPGCGPEVPPTPPGSHSAFTSSFSFIRLSLGSAGERGEAEGCPPSREAESHCQSPQEMGAKAASLDGPHEDPRCLSRPFSLLATRVSADLAQAARNSSRPERDMHSLPDMDPGSSSSLDPSLAGCGGDGSSGSGDAHSWDTLLRKWEPVLRDCLLRNRRQMEVISLRLKLQKLQEDAVENDDYDKAETLQQRLEDLEQEKISLHFQLPSRQPALSSFLGHLAAQVQAALRRGATQQASGDDTHTPLRMEPRLLEPTAQDSLHVSITRRDWLLQEKQQLQKEIEALQARMFVLEAKDQQLRREIEEQEQQLQWQGCDLTPLVGQLSLGQLQEVSKALQDTLASAGQIPFHAEPPETIRSLQERIKSLNLSLKEITTKVCMSEKFCSTLRKKVNDIETQLPALLEAKMHAISGNHFWTAKDLTEEIRSLTSEREGLEGLLSKLLVLSSRNVKKLGSVKEDYNRLRREVEHQETAYETSVKENTMKYMETLKNKLCSCKCPLLGKVWEADLEACRLLIQSLQLQEARGSLSVEDERQMDDLEGAAPPIPPRLHSEDKRKTPLKVLEEWKTHLIPSLHCAGGEQKEESYILSAELGEKCEDIGKKLLYLEDQLHTAIHSHDEDLIQSLRRELQMVKETLQAMILQLQPAKEAGEREAAASCMTAGVHEAQA
# Variants of: B1
# Details: with drd2_human DRD2, P14416
# Chain of drd2_human DRD2, P14416 (P14416 whole entry): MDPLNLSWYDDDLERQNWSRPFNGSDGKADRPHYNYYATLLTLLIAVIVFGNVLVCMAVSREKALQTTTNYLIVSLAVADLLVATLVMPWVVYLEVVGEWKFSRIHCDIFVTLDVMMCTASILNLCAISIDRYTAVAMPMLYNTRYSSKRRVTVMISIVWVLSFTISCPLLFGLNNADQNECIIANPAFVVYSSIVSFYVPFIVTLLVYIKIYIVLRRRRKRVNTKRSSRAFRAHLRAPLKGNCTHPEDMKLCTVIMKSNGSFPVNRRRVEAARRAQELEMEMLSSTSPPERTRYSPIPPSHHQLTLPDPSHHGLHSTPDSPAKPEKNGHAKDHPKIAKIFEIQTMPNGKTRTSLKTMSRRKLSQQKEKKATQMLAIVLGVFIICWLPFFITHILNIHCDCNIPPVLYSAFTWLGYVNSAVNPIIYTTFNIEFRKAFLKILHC
row,effect of a mutation on the interaction,Variant
1,increasing interaction,L100P

# Variants of: B1
# Details: with drd2_mouse Drd2, P61168
# Chain of drd2_mouse Drd2, P61168 (P61168 whole entry): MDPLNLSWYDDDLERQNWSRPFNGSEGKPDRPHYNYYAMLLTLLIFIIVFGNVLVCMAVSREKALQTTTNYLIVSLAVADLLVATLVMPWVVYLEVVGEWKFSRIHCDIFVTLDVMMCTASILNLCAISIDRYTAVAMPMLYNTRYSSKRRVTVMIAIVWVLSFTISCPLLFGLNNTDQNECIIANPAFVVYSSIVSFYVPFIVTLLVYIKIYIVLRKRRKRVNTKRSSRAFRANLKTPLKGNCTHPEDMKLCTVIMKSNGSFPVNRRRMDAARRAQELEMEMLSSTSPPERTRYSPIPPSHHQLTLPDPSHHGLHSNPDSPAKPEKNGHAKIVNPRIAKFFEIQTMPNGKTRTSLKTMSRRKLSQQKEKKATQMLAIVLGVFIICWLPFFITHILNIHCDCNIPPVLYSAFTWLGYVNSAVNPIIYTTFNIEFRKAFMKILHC
row,effect of a mutation on the interaction,Variant
1,increasing interaction,L100P

# Variants of: B2
# Details: with drd2_human DRD2, P14416
row,effect of a mutation on the interaction,Variant
1,decreasing interaction,A83V

# Variants of: B2
# Details: with drd2_human DRD2, P14416
# Remark: another data set of the same source
row,effect of a mutation on the interaction,Variant
1,increasing interaction,R264Q
